Results as given in patent US20240075134A1 (Seagen, published 2024).

Experiments:
murine CD40 = biological target: T1, murine CD40 (murine, UniProt P27512 20-193, limits assumed); experiment: not described
T1 sequence (looked up): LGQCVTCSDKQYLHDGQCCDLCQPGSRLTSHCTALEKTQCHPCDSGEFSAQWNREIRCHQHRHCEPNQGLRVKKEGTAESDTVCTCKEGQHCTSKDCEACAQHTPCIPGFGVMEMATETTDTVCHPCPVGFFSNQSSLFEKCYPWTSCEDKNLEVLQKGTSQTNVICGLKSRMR

[1] = biological target: T2, human CD40 on the surface of PBMCs (human, UniProt P25942 21-277); experiment: cell-based or functional assay
[2] = biological target: T2, human CD40 on the surface of PBMCs; experiment: cell-based or functional assay; remark: listed apart in the source
[3] = biological target: T3, human FcγRIIIa, high affinity (158V) form, on CHO cells (human, UniProt P08637 17-254); experiment: flow cytometry, biotinylated antibody on CHO cells expressing FcγRIIIa 158V
T3 construct: whole, on cells; Position 158 probably counts on the mature protein; also called FcγRIIIa 158V

[4] = biological target: T4, human FcγRIIIa, low affinity (158F) form, on CHO cells (human, UniProt P08637 17-254); experiment: flow cytometry, biotinylated antibody on CHO cells expressing FcγRIIIa 158F
T4 construct: whole, on cells; Allotype with F at position 158 as printed; also called FcγRIIIa 158F
T4 sequence (P08637 17-254): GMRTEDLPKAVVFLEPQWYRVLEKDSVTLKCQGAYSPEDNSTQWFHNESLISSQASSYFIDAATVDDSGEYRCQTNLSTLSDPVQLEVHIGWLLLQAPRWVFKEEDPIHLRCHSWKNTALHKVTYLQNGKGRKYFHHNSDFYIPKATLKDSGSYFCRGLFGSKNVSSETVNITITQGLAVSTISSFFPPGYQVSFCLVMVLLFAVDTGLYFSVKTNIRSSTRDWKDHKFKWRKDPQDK

T2 sequence (P25942 21-277): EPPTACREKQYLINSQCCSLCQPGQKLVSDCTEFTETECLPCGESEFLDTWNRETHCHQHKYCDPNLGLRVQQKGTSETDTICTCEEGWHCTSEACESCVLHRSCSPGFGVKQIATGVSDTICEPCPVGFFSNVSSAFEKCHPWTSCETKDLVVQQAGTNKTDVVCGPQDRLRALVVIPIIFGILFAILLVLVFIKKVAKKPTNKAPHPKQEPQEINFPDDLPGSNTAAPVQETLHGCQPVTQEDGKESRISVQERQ
T3 sequence (P08637 17-254 F176V): as the sequence (P08637 17-254) above, with F160V counted along it

B1: SEA-CD40 (non-fucosylated humanized S2C6 antibody) (antibody, human IgG1, kappa)
heavy: not shown
light: DIQMTQSPSSLSASVGDRVTITCRSSQSLVHSNGNTFLHWYQQKPGKAPKLLIYTVSNRFSGVPSRFSGSGSGTDFTLTISSLQPEDFATYFCSQTTHVPWTFGQGTKVEIKRTVAAPSVFIFPPSDEQLKSGTASVVCLLNNFYPREAKVQWKVDNALQSGNSQESVTEQDSKDSTYSLSSTLTLSKADYEKHKVYACEVTHQGLSSPVTKSFNRGEC
notes: also called SEA40; non-fucosylated hS2C6; copies: 2 + 2
Murine CD40
  binding result: no binding
[1]
  MHCII surface expression on PBMCs, ratio to SEA-h00; SEA-CD40 0.0001 µg/mL, 6 hrs: 0.85 fold
  MHCII surface expression on PBMCs, ratio to SEA-h00; SEA-CD40 0.0001 µg/mL, 24 hrs: 1.05 fold
  MHCII surface expression on PBMCs, ratio to SEA-h00; SEA-CD40 0.0001 µg/mL, 48 hrs: 0.99 fold
  MHCII surface expression on PBMCs, ratio to SEA-h00; SEA-CD40 0.001 µg/mL, 6 hrs: 1 fold
  MHCII surface expression on PBMCs, ratio to SEA-h00; SEA-CD40 0.001 µg/mL, 24 hrs: 1.07 fold
  MHCII surface expression on PBMCs, ratio to SEA-h00; SEA-CD40 0.001 µg/mL, 48 hrs: 1.1 fold
  MHCII surface expression on PBMCs, ratio to SEA-h00; SEA-CD40 0.01 µg/mL, 6 hrs: 0.9 fold
  MHCII surface expression on PBMCs, ratio to SEA-h00; SEA-CD40 0.01 µg/mL, 24 hrs: 1.21 fold
  MHCII surface expression on PBMCs, ratio to SEA-h00; SEA-CD40 0.01 µg/mL, 48 hrs: 1.38 fold
  MHCII surface expression on PBMCs, ratio to SEA-h00; SEA-CD40 0.1 µg/mL, 6 hrs: 0.9 fold
  MHCII surface expression on PBMCs, ratio to SEA-h00; SEA-CD40 0.1 µg/mL, 24 hrs: 1.19 fold
  MHCII surface expression on PBMCs, ratio to SEA-h00; SEA-CD40 0.1 µg/mL, 48 hrs: 1.5 fold
  MHCII surface expression on PBMCs, ratio to SEA-h00; SEA-CD40 1 µg/mL, 6 hrs: 1.14 fold
  MHCII surface expression on PBMCs, ratio to SEA-h00; SEA-CD40 1 µg/mL, 24 hrs: 1.76 fold
  MHCII surface expression on PBMCs, ratio to SEA-h00; SEA-CD40 1 µg/mL, 48 hrs: 1.57 fold
  MHCII surface expression on PBMCs, ratio to SEA-h00; SEA-CD40 10 µg/mL, 6 hrs: 1.1 fold
  MHCII surface expression on PBMCs, ratio to SEA-h00; SEA-CD40 10 µg/mL, 24 hrs: 1.62 fold
  MHCII surface expression on PBMCs, ratio to SEA-h00; SEA-CD40 10 µg/mL, 48 hrs: 2.1 fold
  MHCII surface expression on PBMCs, ratio to SEA-h00; SEA-CD40 100 µg/mL, 6 hrs: 1.13 fold
  MHCII surface expression on PBMCs, ratio to SEA-h00; SEA-CD40 100 µg/mL, 24 hrs: 1.64 fold
  MHCII surface expression on PBMCs, ratio to SEA-h00; SEA-CD40 100 µg/mL, 48 hrs: 2.1 fold
[2]
  EC50 of CD86 upregulation on PBMCs (24 hr): 0.14 µg/mL
  EC50 of MHCI upregulation on PBMCs (48 hr): 0.011 µg/mL
  EC50 of MHCII upregulation on PBMCs (24 hr): 0.41 µg/mL
[3]
  Kd: 5.2 nM
[4]
  Kd: 27.5 nM

B2: dacetuzumab (fucosylated humanized S2C6) (antibody, human IgG1, kappa)
heavy: not shown
light: DIQMTQSPSSLSASVGDRVTITCRSSQSLVHSNGNTFLHWYQQKPGKAPKLLIYTVSNRFSGVPSRFSGSGSGTDFTLTISSLQPEDFATYFCSQTTHVPWTFGQGTKVEIKRTVAAPSVFIFPPSDEQLKSGTASVVCLLNNFYPREAKVQWKVDNALQSGNSQESVTEQDSKDSTYSLSSTLTLSKADYEKHKVYACEVTHQGLSSPVTKSFNRGEC
notes: also called SGN-40; SGN40; copies: 2 + 2
[3]
  Kd: 37.9 nM
[4]
  Kd: 303 nM
